# Results published in patent publication US5534407.
# How the values were obtained:
# [1] = tested on: RecA protein (Escherichia coli); conditions: renaturation t1/2 with about 500 uM ATP; little renaturation without ATP; 10 mM MgCl2, 50 mM NaCl, 37 C
# [2] = tested on: T4 gene 32 protein (Bacteriophage T4); conditions: renaturation t1/2; about 1% annealed after 60 min; 10 mM MgCl2, 50 mM NaCl, 37 C
# [3] = tested on: T7 gene 2.5 protein (Bacteriophage T7); conditions: renaturation t1/2 by agarose gel annealing assay; 10 mM MgCl2, 50 mM NaCl, pH 7.5, 37 C, no ATP; none >30,000 min
substance,measurement,setting,value
167-nt fragment (primer-extended to XmnI site) plus circular M13 mGP1-2 ssDNA,activity,[1],60 min
same,activity,[2],3000 min
same,activity,[3],1 min
